The source of these data is PMC4655608 (The Biochemical journal, 2015).

Usually Kd stands for the free concentration of one partner at which half of the binding sites on the other are occupied at equilibrium, for simple one-to-one binding. Low readings indicate tighter binding, high ones weaker binding.

The target in this test is catalytic p110γ subunit of class IB phosphoinositide 3-kinase (PI3Kγ) (human, UniProt P48736 1-1102). Kind of test: AUC.
catalytic p110γ subunit of class IB phosphoinositide 3-kinase (PI3Kγ), sequence (P48736 whole entry): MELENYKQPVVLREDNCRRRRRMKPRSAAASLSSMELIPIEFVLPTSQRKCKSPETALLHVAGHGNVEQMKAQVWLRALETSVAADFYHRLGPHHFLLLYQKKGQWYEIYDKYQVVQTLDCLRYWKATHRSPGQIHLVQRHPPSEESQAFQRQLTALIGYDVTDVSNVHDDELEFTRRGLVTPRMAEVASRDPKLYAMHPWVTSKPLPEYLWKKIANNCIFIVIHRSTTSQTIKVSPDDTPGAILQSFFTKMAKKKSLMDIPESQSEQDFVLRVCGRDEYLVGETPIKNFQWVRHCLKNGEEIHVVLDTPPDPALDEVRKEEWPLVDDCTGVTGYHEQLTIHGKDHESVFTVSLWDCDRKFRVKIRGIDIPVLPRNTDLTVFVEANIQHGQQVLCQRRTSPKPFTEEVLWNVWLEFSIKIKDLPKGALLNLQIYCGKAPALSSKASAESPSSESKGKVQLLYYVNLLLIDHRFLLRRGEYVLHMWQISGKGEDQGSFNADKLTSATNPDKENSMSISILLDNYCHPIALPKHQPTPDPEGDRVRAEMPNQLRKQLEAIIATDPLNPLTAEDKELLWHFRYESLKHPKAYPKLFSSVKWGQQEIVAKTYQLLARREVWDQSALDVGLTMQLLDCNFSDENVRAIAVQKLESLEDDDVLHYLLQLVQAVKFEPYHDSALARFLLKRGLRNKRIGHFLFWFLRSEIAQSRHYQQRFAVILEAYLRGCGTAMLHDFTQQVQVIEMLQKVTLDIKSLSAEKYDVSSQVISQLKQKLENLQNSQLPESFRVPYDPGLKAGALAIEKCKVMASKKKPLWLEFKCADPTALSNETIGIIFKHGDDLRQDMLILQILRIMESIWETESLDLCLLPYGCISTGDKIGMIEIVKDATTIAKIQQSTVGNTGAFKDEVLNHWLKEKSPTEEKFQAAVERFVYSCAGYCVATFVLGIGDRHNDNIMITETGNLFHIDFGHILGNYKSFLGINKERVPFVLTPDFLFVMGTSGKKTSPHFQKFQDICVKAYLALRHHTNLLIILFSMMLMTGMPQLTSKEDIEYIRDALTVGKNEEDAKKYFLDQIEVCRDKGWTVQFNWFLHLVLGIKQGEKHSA

B1: p87 non-catalytic subunit of PI3Kγ (natural protein, UniProt Q5UE93 1-754, looked up)
chain: MESSDVELDLQRSVQAVLRELSTQAPALQSNQGMWRWSLHKKVERDPGKSPVLVRILLRELEKAESQDLRHVIIPLLHTVMYVLTKATGITEELYQRIYAFCTRLLTLPTPYCTVALDCAIRLKTEMAVPGTLYQRMVIAEQNLTNELYPYQERVFLFVDPELVSASVCSALLLEIEAAQAQQTPETCMRHVVSHALQAALGEACHAGALHRKLQASPRRTLEHYFHAVVAALEQMASEASPSREGHVERLEEIYCSLLGPAAGRCGGDLVQERPPSIPLPSPYITFHLWTGEEQLWKELVLFLRPRSQLRLSADLEVLDLQGLRPDRELARVSVLSTDSGIERDLPTGADELPAPGSPEMERAGLQRKGGIKKRAWPLDFLMPGSWDGPPGLHRRTGRPSGDGEMLPGVSRLHTARVLVLGDDRMLGRLAQAYHRLRKRETQKFCLTPRLSLQLYYIPVLAPEKPAASRQPELGELATFLGRVDPWYQSNVNTLCPAIHKLAEMPPSLDTSRTVDPFILDVITYYIRMGTQPIYFQIYTVKIFFSDLSQDPTEDIFLIELKVKIQDSKFPKDGFSPRRRGVAEGPGAELSLCYQKALLSHRPREVTVSLRATGLILKAIPASDTEVSGSSHCPLPAAPVTDHTCLNVNVTEVVKSSNLAGKSFSTVTNTFRTNNIQIQSRDQRLLTLSLDKDDQRTFRDVVRFEVAPCPEPCSGAQKSKAPWLNLHGQQEVEAIKAKPKPLLMPINTFSGIVQ
The molecule B1 displayed a Kd of at most 200 nM.

B2: p101 non-catalytic subunit of PI3Kγ (natural protein, UniProt Q8WYR1 1-880, looked up)
chain: MQPGATTCTEDRIQHALERCLHGLSLSRRSTSWSAGLCLNCWSLQELVSRDPGHFLILLEQILQKTREVQEKGTYDLLTPLALLFYSTVLCTPHFPPDSDLLLKAASTYHRFLTWPVPYCSICQELLTFIDAELKAPGISYQRLVRAEQGLPIRSHRSSTVTVLLLNPVEVQAEFLAVANKLSTPGHSPHSAYTTLLLHAFQATFGAHCDVPGLHCRLQAKTLAELEDIFTETAEAQELASGIGDAAEARRWLRTKLQAVGEKAGFPGVLDTAKPGKLHTIPIPVARCYTYSWSQDSFDILQEILLKEQELLQPGILGDDEEEEEEEEEVEEDLETDGHCAERDSLLSTSSLASHDSTLSLASSQASGPALSRHLLTSFVSGLSDGMDSGYVEDSEESSSEWPWRRGSQERRGHRRPGQKFIRIYKLFKSTSQLVLRRDSRSLEGSSDTALPLRRAGSLCSPLDEPVSPPSRAQRSRSLPQPKLGTQLPSWLLAPASRPQRRRPFLSGDEDPKASTLRVVVFGSDRISGKVARAYSNLRRLENNRPLLTRFFKLQFFYVPVKRSHGTSPGACPPPRSQTPSPPTDSPRHASPGELGTTPWEESTNDISHYLGMLDPWYERNVLGLMHLPPEVLCQQSLKAEAQALEGSPTQLPILADMLLYYCRFAARPVLLQVYQTELTFITGEKTTEIFIHSLELGHSAATRAIKASGPGSKRLGIDGDREAVPLTLQIIYSKGAISGRSRWSNLEKVCTSVNLNKACRKQEELDSSMEALTLNLTEVVKRQNSKSKKGFNQISTSQIKVDKVQIIGSNSCPFAVCLDQDERKILQSVVRCEVSPCYKPEKSDLSSPPQTPPDLPAQAAPDLCSLLCLPIMTFSGALP
On to B2, for which the dissociation constant (Kd) was at most 100 nM.
